Experimental data as given in the nanobody polyreactivity screen of Harvey et al. (2022).

Assay: yeast display, Sf9 membrane polyspecificity reagent, FACS + sequencing; frameworks hold sequencing errors
Outline: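 Genes from sorted yeast were amplified by colony PCR, read by MiSeq 2 × 250 sequencing and filtered on CDR length. These cells carried a synthetic nanobody library in Saccharomyces cerevisiae BJ5465 and were sorted by FACS into low and high (top ~1%) gates on anti-HA and streptavidin fluorescence. Polyreactivity is labelled according to the gate of origin.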

Row | Sequence | polyreactivity (PSR sort gate)
1 | QVQLVESGGGLVQAGGSLRLSCAASGLTFAYYAMGWYIQAPGKERELVAAITWNGGSTYYADSVKGRFTISRDNSKNTVYLQMNSLKPEDTAVYYCAASWGYCYSGRFDYWGQGTEVTVSS | high polyreactivity
2 | QVQLVESGGGLVQAGGSLRLSCAASGSTFEWYAMGGYRQAPGKEREFVASISWSGGRTYYADSVKGRFTISRDNAKNTVYLQMNSLKPEDTAVYYCAAVAVPLQVPSGRAASKRRYGYWGQGTQVTVSS | high polyreactivity
3 | QVQLVESVGGLVQAGGSLRLSCSASGSIIYSYAMGWYRQAPGKERELVADITTGGGSTYYADSVKGRFTISRDNAKNTVYLQMNSLKPEDTAVYYCAAEQDTVWFLWIVDYCGQGTQVTVSS | low polyreactivity
4 | QVQLVESGGGLVQAGGSLRLSCAASGSIFGYYAMGWYRQAPGKERELVAAISVSGGSTYYADSVKGRFTISRDNAKNTVYLQMNSLKPEDTAVYYCKKVQGSWRVPYYYWGQGTQVTVSS | high polyreactivity
5 | QVQLLESGGGLVQAGRSLRLSCSASGRTLVYNAMGWYRQAPGKERELVAGITNGGSTNYADSVKGRFTISRDTAKNTVYLQMNSLKPEDTAVYYCAADSRVYPYYFGDFGYWGQGTQVTVSS | low polyreactivity
6 | QVQLVESGGGLVQAGGSLRLSCAASGRIFNRNAMGWYRQAPGKEREFVAAISRSGGTTYYADSVKGRFTFSRDNAKNTVYLQINSLKPEDTAFYYCNAVRYQTEVDYWGQGTQVTVSS | high polyreactivity
7 | QVQLVESGGGLVQAGGSLRLSCAASGRTFTEYAMGWYRQAPGKEREFVARIRWSDGSTYYADSVKGRFTISRDNAKNTVYLQMNSLLPEDTAVYYCAARYIETPVTVLSLMDYWGQGTQVTVSS | low polyreactivity
8 | QVQLVESGGGLVQAGGSLRISCDASGSTFAWYAMGWYRQAPGKERELVAAISRTGRTYYADSVKGRFTISRDNAKNTVYLQMNRLTPEDTAVYYCAGRIERFYRDQRYDYWGQGTQVTVSS | high polyreactivity
9 | QVQLVESGGGLVQAGGSLRLSCAASGFTFPDYAMGWYRQAPGKERELVAGISSTGDSTYYADSVKGRITISRDNAKNTVYLQMNSLKPEDTAVYYCNAAQERPIIILFSKYDYCGQGTQVTVSS | low polyreactivity
10 | QVQLVESGGGLGQAGGSLRLSCAASGFTFVFYAMGWYRQAPGKERELVAGISRTGGSTYYADSVKGRFTISRDNAKNTVYLQMNSLKPEDTAVYYCAAVSRGFGSRGYDYWGQGTQVTVSS | high polyreactivity
11 | QVQLVESGGGLVQAGGSLRLSCAASGRILYRYAMGWYRQAPGKERELVAAITWRGGTTYYADSVKGRFTISRDNAKNTVYLQMNSLKPEDTAVYYCNADWWRTLESDYWGQGTQVTVSS | low polyreactivity
12 | QVQLVESGGGIVQAGGSLRLSCAASGSTFDGYAMGWYRQAPGKERELVAAITRSGGSTYYADSVKGRFTISRDNAKNTVYLQMNSLKPEDTEVYYCNKYGYKGGVGYDYWGQGTQVTVSS | high polyreactivity
13 | QVQLVESGGGLVQAGGSLRLSCAASGNIFVYNAMGWYRQAPGKEREFVAAIDSGGSTYYADSVKGRFTISRDNAKNTVYLQMNSLKPEDTAVYYCARAVVQSRGPPRYKTPYDYWGQGTQVTVSS | low polyreactivity
14 | QVHLVESGGGLVQAGGSLRLSCAASGRTFSGYAMGWYRQAPGKERELVAAITSSGSSTYYADSVKGRFTISRDNAKNTVYLQMNSLKPEDTAVYYCAATPQAHSERYYYQRKYDYWGQGTQVTVSS | low polyreactivity
15 | QVQLVESGGGLVQAGGSLRLSCAASGSIFYGYAMGWYRQAPGKERELVAVITDGGGSTYYADSVKGRFTISRDNAKNTVYLQMNSLKPEDTAVYYCAADSWGPYYYSSYSYDYWGQGTQVTVSS | low polyreactivity
16 | QVQLVESGGGLVQAGGSLRLSCDASGRIFAGYAMGWYRQAPGKERELVASINWSGGSTYYADSVKGRFTISRDNAKNTVYLQMNSLKPEDTAVYYCAKEPTYRSGEAYVGLYYWGQGTQVTVSS | high polyreactivity
17 | QVQLVESGGGLVQAGGSLRLSCAASGSIFYTYVMGWYRPAPGKERELVAVISWSSTSTYYADSVKGRFTISRDNAKKTVYLQMNSLKPEDTAVYYCAAGVHRYRPGHGYDDGGYYWGQGTQVTVSS | low polyreactivity
18 | QVQLVESGGGLVQAGGSLRLSCAASGLIFWAYAMGWYRQAPGKERELVAAINWRGGSTYYADSVKGRFTISRDNAKNTVYLQMNSLKPEDTAVYYCAADSYYDEYDYCGQGTQVTVSS | low polyreactivity
19 | QVQLVESGGGLVQAGGSLRLSCAASGFILDTYAMGWYRQAPGKERELVAAISASGSSTYYADSVKGRFTISRDNAKNTVYLQMNSLKPEDTAVYYCAAKDTGYGYGFPRLDYWGQGTQVTVSS | low polyreactivity
20 | QVQLVESGGGLVQAGGSLRLSCAASGSIFKYYAMGWYRQAPGKERELVAAISSGGRTNYADSVKGRFTISRDNAKNTVYLQMNSLKPEDTAVYYCAAGWYRKHRQPSGVGGDYWGQGTQVTVSS | high polyreactivity
21 | QVQVVESGGGLVQAGGSLRLSCAASGFIFRYYAMGWYRQAPGKEREFVAAISTSAGSTYYADSVKGRFTISRDNAKNTVYLQMNSLKPEDTAVSYCAAEYWRRASYNYWGQGTQVTVSS | high polyreactivity
22 | QVQPVESGGGLVQAGGSLRLSCDASGRIFYEYAMGRSRQAPGKERELVAISTSGGNTYYADSVKGRFTISRDNAKNTVYLQMKSLKPEDTEVYYCAKRGYRAYYWGQGTLVTVSS | high polyreactivity

Row | Sequence | polyreactivity (PSR sort gate)
23 | QVQLVESGGGLVQAGGSLRLSCAASGYAMGWYRQAPGKERELVAAISWSGDITYADSVKGRFTISRDNAKNTVYLQMNRLKPEDTAVYYCNADRYTGRDGEQSLDYWGQGTQVTVSS | low polyreactivity
24 | QVQLVESGGGLVQAGGSLRLSCAASGNTFSDYSMGWYRQAPGNERELVAAITISGGSTYYADSVKGRFTISRDNAKNTVYLQMNSLKPEDTAVYYCAADVWYILYDYWGQGTQVTVSS | low polyreactivity
25 | QVQLVESGGGLVLAGGSLRLSCAASGFIFARYAMGWYRQAPGKERELVAAISRGGSTYYADSVKGRFTISRDNAKNTVYFQMHSLKPEDTAVYYCNKRQLPNARGSSTYEYWGQGTQVTVSS | high polyreactivity
26 | QVQLVESGGGLVQAGGSLRLSSAASGLTFQEYAMGWYRQAPGKERELVAAISWSGGSTYYADSVKGRFTISRDNAKNTVYLQMNSLKPEDTAVYYCAAEAYEEYITGWYAYDYWGQGTQVTVSS | high polyreactivity
27 | LGQVVESGGGLVQAGGSLRLSCAASGRIFHRNTMGWYRQAPGKEWELVAAISGSTGRTYYADSVKGRFPISRDNAKTTVYLQMNSLKPEDTAVYYCAKVYRRSGSVARYDYGGQGTQVTVSS | high polyreactivity
28 | QVQLVESGGGLVQAGGSLRLSCAASGNILFNNSMGWYRQAPGKERELVAAISRSAGSTYYADSVKGSFTISRDNEKNTVYLQMNRLKPEDTAVYYCAAQYFRRSGYWGQGTQVTVSS | high polyreactivity
29 | QVQLVESLGGLVQAGGRLRLSSAASGLIFPRNAMGWYRQAPGKERELVAVISRSGTTTYYADSVKGRFTISRDNAKKTVYFQMNSLIPEDTAVYYCASAPSHVYRARFYYWGQGTQVTVSS | high polyreactivity
30 | QVQLVESGGGLVQAGGSLRLSCAASGSTFRVNAMAWYRHAPGKERELVADITNGGSTYYADSVKGRFTISRDNAKNTVYLQMNSLKPEDTAVYYCNARPSYLRFKWYSYDYWGQGTQVTVSS | high polyreactivity
31 | QVQLVESGGGLVQAGGSLRLSCAASGIIFAYNAMGWYRQAPVKERELVAAISVIGGTTYYADSVKGRFTISRDNAKITVYLQMNSLKPEDTAVYYCAVDSVQYGGGYERLHDLYYWGQGTQVTVSS | low polyreactivity
32 | QVQLVESGGGLVQAGGSLRLSCAASGRIFKLYAMGWYRQAPGKERELVAAISTSGGSTYYADSVKGRFTISRDNAKNTVYLQMNSLKPEDTAVFYCAADPLSGYDYWGQGTQVTVSS | high polyreactivity
33 | QVQLVESGGGLVQAGGSLRLSCAASGFTFTRYAMGWYRQAPGKERELVAAIRWSGGRTYYADSVKGRFTISRDNAKNTVYLQMNSLKPEDTAVYYCYAVFYDPRREYDYWGQGTQVTVSS | high polyreactivity
34 | QVQLVESGGGLVQAGGSLRLSCAASGSIFPVYAMGWYRQAHGKVREFVASIRWRGGSTSYADSVKGRFTISRDNAKNTVYLQMNSLKPEETAVYYCNAVYYSWSQSARFDYWGQGTQVTVSS | low polyreactivity
35 | QVQLVESGVGLVQAGGSLRLICAASGGTFEFYTMGRYRQAPGKERELVAVINASGDSTYYADSVKGRFTISRDNAKNTVYLQMNSLKPEDTAVYYCAADHRGEYDYWGQGTQVTGSS | low polyreactivity
36 | QVQLVESGGGLVQAGGSLRLSCAASGSTSYLYAMGWYRQAPGKERELVATITTRSGSTYYADSVKGRFTISRDNAKNTVYLQINSLKPEDTAVYYCAARWISVLSEGAEHDYWGQGTQVTVSS | low polyreactivity
37 | QVQLVESGGGLVQAGGIIRLSCAASGLIFSRYAMGWYRQAPGKETELVAAITQSGTSTYYADSVKGRFTISRDNANNTVYLQMTILKPEDTAVYYCNAYPQYRYDYWGQGTQVTVSS | low polyreactivity
38 | QVQLVESGGGLVQAGGSLRLSCAASGSTFFGNAMGWYRQAPGTERELVAAIRFSGVGTYYADSVKGRFTISLDNAKNTVYLQMNSLKPEDTAVYYSAAESYYKYYWGQGTQVTVSS | low polyreactivity
39 | QVQLVESGGGLVQAGGSLRLSCAASGSTFRYYTMGWYRQAPGKERELVARISWSGGSTYYAYSVKGRFTISRDNAKYTVYLQMNSLKPEDTAVYYCNAVLFYFQTRDYWGQGTQVTVSS | high polyreactivity
40 | QVQLVESGGGLVQAGGSLRLSCAASGFIFSTNAMGWYRQAPGKERELVAVINGGGSTYYADSVKGRFTISRDNAKNTVYLQLNSLKPEDTAVYNCARKSWPKEGRVDPGYDYWGQGTQVTVSS | low polyreactivity
41 | QVQLQESGGRMVQAGGSLRLSCAASGYISWADYKGWYRQAPGKERELVAGIGYGSTTYYADSVKGRFTISRDNAKNTSYLQMNSLKPEDTAVYYCAVGWYRDSAYKYWGQGTQVTVSS | low polyreactivity
42 | QVQLVESGGGLVQAGGSLRLSCAASGNIFSRYAMGWYRQAPGKERELVAAISKSGGSTYYADSVKGRFTISRDNAKNTVYLQMNSLKPEDTAVYYCAAYTFFLGYPEFDYWGQGTQVTVSS | high polyreactivity
43 | QVHLVDSAGGLVQAGGNLSLSCEASGSIFRAYAMGWYRQAQGKERELVADISRSGGSTYYAESVKGRFTISRDNAKNTVYLQRNSLKPEDTAVSYGAAVFYLFSNLYGEYDYWGQGTQVTVSS | low polyreactivity
